# Reference: US6555322B1, “α2-macroglobulin receptor as a receptor for CTGF” (FibroGen, Inc., priority 1999, dated 2003)
# B1: transforming growth factor beta (protein)
# chain: ALDAAYCFRNVQDNCCLRPLYIDFKRDLGWKWIHEPKGYNANFCAGACPYLWSSDTQHSRVLSLYNTINPEASASPCCVSQDLEPLTILYYIGKTPKIEQLSNMIVKSCKCS
# notes: growth factor, 20 ng/ml TGF-β2 used to treat MG63 cells
# B2: lipoprotein lipase (protein)
# chain: DRITGGKDFRDIESKFALRTPEDTAEDTCHLIPGVTESVANCHFNHSSKTFVVIHGWTVTGMYESWVPKLVAALYKREPDSNVIVVDWLSRAQQHYPVSAGYTKLVGQDVAKFMNWMADEFNYPLGNVHLLGYSLGAHAAGIAGSLTNKKVNRITGLDPAGPNFEYAEAPSRLSPDDADFVDVLHTFTRGSPGRSIGIQKPVGHVDIYPNGGTFQPGCNIGEALRVIAERGLGDVDQLVKCSHERSVHLFIDSLLNEENPSKAYRCNSKEAFEKGLCLSCRKNRCNNMGYEINKVRAKRSSKMYLKTRSQMPYKVFHYQVKIHFSGTESNTYTNQAFEISLYGTVAESENIPFTLPEVSTNKTYSFLLYTEVDIGELLMLKLKWISDSYFSWSNWWSSPGFDIGKIRVKAGETQKKVIFCSREKMSYLQKGKSPVIFVKCHDKSLNRKSG
# notes: lipoprotein lipase purified from bovine milk, known LRP ligand
# B3: lactoferrin (protein, UniProt P02788 20-710, looked up)
# Lactotransferrin: GRRRSVQWCAVSQPEATKCFQWQRNMRKVRGPPVSCIKRDSPIQCIQAIAENRADAVTLDGGFIYEAGLAPYKLRPVAAEVYGTERQPRTHYYAVAVVKKGGSFQLNELQGLKSCHTGLRRTAGWNVPIGTLRPFLNWTGPPEPIEAAVARFFSASCVPGADKGQFPNLCRLCAGTGENKCAFSSQEPYFSYSGAFKCLRDGAGDVAFIRESTVFEDLSDEAERDEYELLCPDNTRKPVDKFKDCHLARVPSHAVVARSVNGKEDAIWNLLRQAQEKFGKDKSPKFQLFGSPSGQKDLLFKDSAIGFSRVPPRIDSGLYLGSGYFTAIQNLRKSEEEVAARRARVVWCAVGEQELRKCNQWSGLSEGSVTCSSASTTEDCIALVLKGEADAMSLDGGYVYTAGKCGLVPVLAENYKSQQSSDPDPNCVDRPVEGYLAVAVVRRSDTSLTWNSVKGKKSCHTAVDRTAGWNIPMGLLFNQTGSCKFDEYFSQSCAPGSDPRSNLCALCIGDEQGENKCVPNSNERYYGYTGAFRCLAENAGDVAFVKDVTVLQNTDGNNNEAWAKDLKLADFALLCLDGKRKPVTEARSCHLAMAPNHAVVSRMDKVERLKQVLLHQQAKFGRNGSDCPDKFCLFQSETKNLLFNDNTECLARLHGKTTYEKYLGPQYVAGITNLKKCSTSPLLEACEFLRK
# notes: known LRP ligand
# B4: connective tissue growth factor (protein)
# chain: QNCSGPCRCPDEPAPRCPAGVSLVLDGCGCCRVCAKQLGELCTERDPCDPHKGLFCHFGSPANRKIGVCTAKDGAPCIFGGTVYRSGESFQSSCKYQCTCLDGAVGCMPLCSMDVRLPSPDCPFPRRVKLPGKCCEEWVCDEPKDQTVVGPALAAYRLEDTFGPDPTMIRANCLVQTTEWSACSKTCGMGISTRVTNDNASCRLEKQSRLCMVRPCEADLEENIKKGKKCIRTPKISKPIKFELSGCTSMKTYRAKFCGVCTDGRCCTPHRTTTLPVEFKCPDGEVMKKNMMFIKTCACHYNCPGDNDIFESLYYRKMYGDMA
# notes: recombinant human CTGF produced in baculovirus-infected Hi 5 insect cells, also used radioiodinated
# Columns and labels:
# [1] = test system: MG63 cells; experiment: Internalization and degradation time course of 125I-rhCTGF after TGF-β treatment; type: cell-based, human
# Protocol: To examine whether LRP function was altered by TGF-β treatment, the following experiments were conducted. MG63 cells were plated at 2.5×10^4 cells/cm^2 in MEM with 10% FBS. The following day, the cells were rinsed with MEM containing 0.5% MEM and incubated in this low serum medium with or without 20 ng/ml of TGF-β2. At 24 or 48 hours the cells were rinsed twice with binding medium, then incubated at 4° C. for 3 hours with 0.2 nM ^125I-rhCTGF. After incubation, the cells were rinsed 4 times with binding buffer at 4° C., then fresh binding buffer pre-warmed to 37° C. was added and the cells continued incubation at 37° C. At time points of 0, 15, 30, 60, 120 and 180 min, the media were collected and processed by precipitation with 10% TCA. The cell layer was processed by trypsination of the cells. Pellets and supernatants were separated and counted for each point.
# [2] = test system: MG63 cells; experiment: Protein synthesis in the presence of PEA as measure of LRP internalization activity; type: cell-based, human; conditions: 20 ng/ml TGF-β for 48 hours, 14C-amino acid pulse
# Protocol: Pseudomonas exotoxin A (PEA) is a ligand for LRP, and following internalization is degraded in lysosomes. One of the degradation products contains PEA domain III, which promotes ADP-ribosylation of elongation factor-2, inhibiting protein synthesis. Protein synthesis in the presence of various concentrations of PEA was used to measure the internalization activity of LRP. To test whether TGF-β altered LRP activity for PEA internalization, MG63 cells were treated with 20 ng/ml TGF-β for 48 hours, then treated with various concentrations of PEA. After 2 hours, protein synthesis was monitored with an overnight pulse of ^14C-amino acids. The cell layers were extracted with 10% trichloroacetic acid and counted.
# [3] = test system: MG63 cells; experiment: Internalization and degradation of 125I-rhCTGF during binding, with additives; type: cell-based, human; conditions: two hour incubation at 37° C.
# [4] = target: T1, LRP receptor (Mus musculus, UniProt Q91ZX7); experiment: Competitive binding and cross-linking of LRP ligands with 125I-CTGF on BMS-2 cells; design: species or system murine; conditions: 50 pM 125I-CTGF; CTGF 21.5 nM, BP5 201-218 50 μg/ml, LF 25 μg/ml, apo E 20 μg/ml, LpL 20 μg/ml
# T1 construct: endogenous in cells; host or cells: BMS2 (BMS-2) murine bone marrow stromal cells
# Protocol: To examine whether ligands known to bind to LRP inhibit CTGF binding, BMS-2 cells were labeled with 50 pM ^125I-CTGF in the presence or absence of unlabeled ligand (CTGF: 21.5 nM; BP5^201-218: 50 μg/ml or […] (Campbell and Andress, 1997, Am. J. Physiol., 273:E1005-13); lactoferrin (LF): 25 μg/ml or 250 nM; apo E: 20 μg/ml or 574 nM; lipoprotein lipase (LpL): 20 μg/ml or 400 nM). The cells were cross-linked and the receptor complexes were solubilized, processed on SDS-PAGE and visualized by autoradiography.
# [5] = target: T2, high Mr CTGF binding protein on BMS-2 cells (Mus musculus, UniProt Q91ZX7); experiment: Binding analysis of 125I-CTGF competition with LRP ligands on BMS-2 cells; design: species or system murine; conditions: 0.1 nM 125I-CTGF
# T2 construct: endogenous in cells; host or cells: BMS2 (BMS-2) murine bone marrow stromal cells
# Protocol: BMS-2 cells were incubated with 0.1 nM ^125I-CTGF in the presence of unlabeled CTGF, recombinant human apoE, low density lipoprotein purified from human plasma (LDL), or lipoprotein lipase purified from bovine milk (LpL).
# [6] = test system: MG63 cells; experiment: Internalization and degradation kinetics of 125I-CTGF with heparin or lactoferrin; type: cell-based, human
# Protocol: Experiments were performed in which the internalization and degradation kinetics of CTGF were followed in the presence or absence of a known LRP ligand, lactoferrin. Kinetics were followed in the presence or absence of 3 μg/ml heparin or lactoferrin. ^125I-CTGF was bound to MG63 cells at 4° C. and free CTGF was removed by washing the cells. Fresh medium was placed on the cells, and the cells were transferred to 37° C. At each time point, the medium was removed and TCA precipitated. Degraded ^125I-CTGF was quantified by measuring the cpm in the non-precipitable fraction (see FIG. 17). In parallel experiments, ^125I-CTGF was bound to MG63 cells at 4° C. and free CTGF was removed by washing the cells. Fresh medium was placed on the cells, and they were transferred to 37° C. At each time point, the cell layer was removed by extensive trypsinization at 4° C. The cells were centrifuged and the cpm associated with the pellet, the internalized fraction, was determined (see FIG. 18).
# [7] = test system: CTGF receptor; experiment: Cell survey of CTGF cross-linked receptor complexes; type: binding
# [8] = target: T3, CTGF receptor on MG63 cells (Homo sapiens, UniProt Q07954); experiment: Specificity of CTGF binding in the presence of known growth factors, cross-linking; conditions: 200 pM 125I-CTGF, growth factor at 1 μg/ml
# T3 construct: endogenous in cells; host or cells: MG63 human osteosarcoma cells
# Protocol: The specificity of CTGF binding to the CTGF receptor was analyzed by performing an affinity binding experiment in the presence of a number of known growth factors. MG63 cells were labeled with 200 pM ^125I-CTGF in the presence of the indicated growth factor at 1 μg/ml. The cells were cross-linked with S-SMCC and the cell lysates were reduced prior to SDS-PAGE.
# [9] = test system: LRP; experiment: Cross-linking and equilibrium binding of 125I-rhCTGF on MEF1, PEA 10 and PEA 13 cells; design: species or system murine
# Protocol: Three cell lines useful for a complete genetic system for the study of LRP function were generated by Willnow and Herz (1994, J. Cell Sci. 103:719-726) and obtained from the American Type Culture Collection (ATCC). The wild type line, MEF1, are fibroblasts originating from murine embryos and are homozygous positive for LRP expression. Fibroblasts that carry one or two copies of the defective LRP allele from hybrid embryos (see Herz et al.(1992) Cell. 71:411-21) were cultured in Pseudomonas exotoxin A (PEA) and the resistant clones, PEA 10 and PEA 13, which are heterozygous and homozygous, respectively, for LRP deficiency. Resistance to Pseudomonas exotoxin A by PEA 10 and PEA 13 cell lines, as well as sensitivity by MEF1 cells, was confirmed by growth in 30 ng/ml Pseudomonas exotoxin A after receipt from ATCC.
# The three cell lines were cultured and plated for affinity binding with radiolabeled CTGF, cross-linking and gel analysis. Specifically, cross-linking of ^125I-rhCTGF to monolayers of MEF1, PEA 10 and PEA 13 cells were carried out as follows: Cells plated in 6-well dishes were incubated at 4° C. with 0.2 nM ^125I-rhCTGF in the presence (+) or absence (−) of a 200 fold excess of unlabeled rhCTGF in a binding buffer of PBS, 0.2% BSA, 0.02% sodium azide. After a 3 hour period of labeling, cells were cross-linked with 0.5 mM BS^3 for 15 minutes at room temperature. […]
# [10] = 20 ng/ml TGF-β2, 48 hour exposure
# T1 sequence (Q91ZX7 20-4545): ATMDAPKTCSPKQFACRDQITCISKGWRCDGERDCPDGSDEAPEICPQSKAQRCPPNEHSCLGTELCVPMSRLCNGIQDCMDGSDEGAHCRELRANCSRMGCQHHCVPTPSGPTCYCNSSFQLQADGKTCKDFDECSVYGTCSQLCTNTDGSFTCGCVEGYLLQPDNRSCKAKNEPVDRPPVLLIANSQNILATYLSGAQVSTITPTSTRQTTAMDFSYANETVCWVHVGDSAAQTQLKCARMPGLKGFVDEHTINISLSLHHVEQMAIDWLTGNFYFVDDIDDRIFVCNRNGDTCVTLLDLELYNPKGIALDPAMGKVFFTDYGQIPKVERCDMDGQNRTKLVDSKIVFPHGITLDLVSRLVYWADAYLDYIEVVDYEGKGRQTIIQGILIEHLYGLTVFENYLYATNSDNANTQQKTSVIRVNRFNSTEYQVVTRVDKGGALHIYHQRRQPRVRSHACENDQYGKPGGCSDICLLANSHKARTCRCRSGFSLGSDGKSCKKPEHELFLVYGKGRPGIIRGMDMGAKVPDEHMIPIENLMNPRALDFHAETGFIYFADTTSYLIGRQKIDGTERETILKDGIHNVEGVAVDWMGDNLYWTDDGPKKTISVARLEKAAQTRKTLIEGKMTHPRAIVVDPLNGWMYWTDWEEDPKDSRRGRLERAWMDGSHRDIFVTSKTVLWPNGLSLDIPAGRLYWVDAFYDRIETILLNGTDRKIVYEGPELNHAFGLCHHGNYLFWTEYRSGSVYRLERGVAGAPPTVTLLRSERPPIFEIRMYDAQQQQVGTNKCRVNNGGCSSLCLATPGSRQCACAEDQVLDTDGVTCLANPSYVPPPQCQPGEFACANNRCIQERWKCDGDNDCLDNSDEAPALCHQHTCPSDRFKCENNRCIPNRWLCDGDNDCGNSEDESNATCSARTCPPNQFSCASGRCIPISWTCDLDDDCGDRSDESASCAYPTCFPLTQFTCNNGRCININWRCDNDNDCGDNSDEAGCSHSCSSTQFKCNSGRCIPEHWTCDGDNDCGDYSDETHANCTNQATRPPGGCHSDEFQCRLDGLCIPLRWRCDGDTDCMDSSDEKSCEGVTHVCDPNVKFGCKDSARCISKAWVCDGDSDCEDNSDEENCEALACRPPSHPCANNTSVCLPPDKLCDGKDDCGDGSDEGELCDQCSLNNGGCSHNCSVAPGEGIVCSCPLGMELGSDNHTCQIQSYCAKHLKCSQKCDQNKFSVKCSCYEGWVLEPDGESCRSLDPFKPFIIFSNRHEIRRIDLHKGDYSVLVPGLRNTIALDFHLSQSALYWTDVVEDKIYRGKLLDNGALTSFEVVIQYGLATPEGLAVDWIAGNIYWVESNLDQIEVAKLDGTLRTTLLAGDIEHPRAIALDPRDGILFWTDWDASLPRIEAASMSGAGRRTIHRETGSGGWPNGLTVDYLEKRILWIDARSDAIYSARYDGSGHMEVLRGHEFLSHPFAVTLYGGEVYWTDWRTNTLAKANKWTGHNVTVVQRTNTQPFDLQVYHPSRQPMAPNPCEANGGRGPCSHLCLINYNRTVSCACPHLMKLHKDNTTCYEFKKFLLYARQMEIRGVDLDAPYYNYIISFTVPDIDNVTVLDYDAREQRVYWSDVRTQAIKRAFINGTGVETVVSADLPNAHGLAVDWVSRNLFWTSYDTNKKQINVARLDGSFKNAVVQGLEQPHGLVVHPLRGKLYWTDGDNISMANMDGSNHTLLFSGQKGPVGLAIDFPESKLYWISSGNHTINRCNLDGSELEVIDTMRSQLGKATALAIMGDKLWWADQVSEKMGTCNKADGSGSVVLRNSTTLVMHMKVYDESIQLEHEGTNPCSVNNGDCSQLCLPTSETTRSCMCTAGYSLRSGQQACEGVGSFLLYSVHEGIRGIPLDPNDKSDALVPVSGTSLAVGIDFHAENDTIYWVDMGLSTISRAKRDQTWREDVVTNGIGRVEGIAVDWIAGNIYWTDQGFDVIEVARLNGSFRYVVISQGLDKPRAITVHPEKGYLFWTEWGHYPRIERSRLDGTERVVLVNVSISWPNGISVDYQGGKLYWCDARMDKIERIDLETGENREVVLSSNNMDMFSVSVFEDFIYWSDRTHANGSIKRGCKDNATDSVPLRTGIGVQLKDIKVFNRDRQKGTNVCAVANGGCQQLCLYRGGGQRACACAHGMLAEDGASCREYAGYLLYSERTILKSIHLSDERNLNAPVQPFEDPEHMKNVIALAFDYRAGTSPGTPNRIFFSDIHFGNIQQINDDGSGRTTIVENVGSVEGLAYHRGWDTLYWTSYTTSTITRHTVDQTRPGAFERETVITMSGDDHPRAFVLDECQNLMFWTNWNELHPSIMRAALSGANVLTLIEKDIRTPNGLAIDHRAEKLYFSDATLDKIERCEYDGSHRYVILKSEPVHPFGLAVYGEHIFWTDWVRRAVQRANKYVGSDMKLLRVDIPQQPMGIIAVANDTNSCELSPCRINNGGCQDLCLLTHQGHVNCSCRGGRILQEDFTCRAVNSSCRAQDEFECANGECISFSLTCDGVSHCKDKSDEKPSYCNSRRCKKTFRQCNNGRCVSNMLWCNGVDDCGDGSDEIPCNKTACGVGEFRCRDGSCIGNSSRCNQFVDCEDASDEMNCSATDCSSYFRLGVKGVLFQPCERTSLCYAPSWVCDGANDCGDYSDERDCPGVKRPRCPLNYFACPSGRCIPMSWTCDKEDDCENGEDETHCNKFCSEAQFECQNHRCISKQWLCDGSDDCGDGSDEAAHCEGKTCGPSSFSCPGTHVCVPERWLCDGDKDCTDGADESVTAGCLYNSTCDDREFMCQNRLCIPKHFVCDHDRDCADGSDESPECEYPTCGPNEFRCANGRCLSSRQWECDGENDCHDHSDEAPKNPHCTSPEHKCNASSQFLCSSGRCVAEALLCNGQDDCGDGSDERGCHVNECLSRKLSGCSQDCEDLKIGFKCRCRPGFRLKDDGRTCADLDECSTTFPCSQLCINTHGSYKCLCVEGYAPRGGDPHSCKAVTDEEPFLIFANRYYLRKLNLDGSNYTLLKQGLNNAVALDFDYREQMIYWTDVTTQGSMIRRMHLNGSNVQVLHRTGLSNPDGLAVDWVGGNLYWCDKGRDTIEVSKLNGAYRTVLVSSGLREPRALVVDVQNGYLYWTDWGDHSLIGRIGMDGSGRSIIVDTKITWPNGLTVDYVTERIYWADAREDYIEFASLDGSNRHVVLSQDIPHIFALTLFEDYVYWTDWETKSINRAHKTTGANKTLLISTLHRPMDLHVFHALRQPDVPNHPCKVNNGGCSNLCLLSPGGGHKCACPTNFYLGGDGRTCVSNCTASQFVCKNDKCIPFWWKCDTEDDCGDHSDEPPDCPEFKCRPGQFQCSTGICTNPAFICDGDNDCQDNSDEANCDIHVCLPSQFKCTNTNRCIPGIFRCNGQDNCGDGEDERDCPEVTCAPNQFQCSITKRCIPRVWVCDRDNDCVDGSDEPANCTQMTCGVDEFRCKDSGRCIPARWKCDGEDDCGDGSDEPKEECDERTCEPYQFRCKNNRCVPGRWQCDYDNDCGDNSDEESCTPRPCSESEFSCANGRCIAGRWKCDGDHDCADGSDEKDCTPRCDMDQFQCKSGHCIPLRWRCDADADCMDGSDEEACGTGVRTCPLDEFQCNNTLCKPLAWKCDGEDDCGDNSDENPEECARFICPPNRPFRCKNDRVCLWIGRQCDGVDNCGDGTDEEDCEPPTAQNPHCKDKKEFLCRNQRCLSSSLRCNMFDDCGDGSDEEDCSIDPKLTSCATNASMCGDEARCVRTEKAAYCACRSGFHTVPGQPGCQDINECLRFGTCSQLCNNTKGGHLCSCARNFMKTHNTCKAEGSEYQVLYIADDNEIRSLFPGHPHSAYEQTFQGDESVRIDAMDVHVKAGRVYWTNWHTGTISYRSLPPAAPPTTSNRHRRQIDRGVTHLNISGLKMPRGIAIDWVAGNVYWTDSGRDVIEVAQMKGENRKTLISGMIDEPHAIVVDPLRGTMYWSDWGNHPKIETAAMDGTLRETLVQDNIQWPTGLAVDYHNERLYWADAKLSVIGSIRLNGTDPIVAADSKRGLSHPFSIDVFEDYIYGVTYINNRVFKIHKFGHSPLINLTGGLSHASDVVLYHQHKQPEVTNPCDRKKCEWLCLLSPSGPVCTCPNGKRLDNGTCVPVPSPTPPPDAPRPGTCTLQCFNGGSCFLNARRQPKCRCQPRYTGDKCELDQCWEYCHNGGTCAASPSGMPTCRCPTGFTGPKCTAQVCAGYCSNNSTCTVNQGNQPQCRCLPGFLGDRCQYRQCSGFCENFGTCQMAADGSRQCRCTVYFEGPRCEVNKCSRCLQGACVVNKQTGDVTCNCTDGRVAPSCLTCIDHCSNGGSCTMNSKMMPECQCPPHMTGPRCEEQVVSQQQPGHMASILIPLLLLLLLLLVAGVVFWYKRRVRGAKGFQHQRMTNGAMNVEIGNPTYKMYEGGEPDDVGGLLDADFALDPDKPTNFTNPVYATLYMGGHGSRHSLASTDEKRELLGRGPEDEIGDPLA
# T2 sequence (Q91ZX7 20-4545): as above
molecule,measurement,setting,value
B1,"degradation of 125I-CTGF, control cells relative to TGF-β treated cells",[1]; [10],at least 3 fold
same,internalization of CTGF in TGF-β treated cells,[1]; [10],more modest internalization
same,"internalization and degradation of CTGF by CTGF receptor (LRP), lower in TGF-β treated cells",[1]; TGF-β treated versus control cells,about 3 fold
same,"sensitivity to PEA, TGF-β treated cells less sensitive than control cells",[2],about 3 fold
same,"CTGF degraded, TGF-β treated cells",[3]; 48 hours post-TGF-β exposure,400 fmol
same,"CTGF specifically internalized, TGF-β treated cells",[3]; 48 hours post-TGF-β exposure,about 150 fmoles
B2,competing the binding to the LRP receptor,[4],very effective in competing
same,competition with 125I-CTGF,[5],competed
B3,competing the binding to the LRP receptor,[4],very effective in competing
same,rate of degradation of CTGF,[6]; 3 μg/ml heparin or lactoferrin,reduced the rate
same,rate of internalization of CTGF,[6]; 3 μg/ml heparin or lactoferrin,reduced the rate
B4,cross-linking of CTGF to CHO and MLEC cells,[7],did not appear to cross-link
same,competing the binding to the LRP receptor,[4],most effective
same,competition for CTGF binding to the cell surface,[8],effectively competed
same,time of internalization of CTGF,[6]; 37° C. after binding at 4° C.,≤ 30 min
same,"cross-linked signal co-migrating with the complex, PEA 13 cells","[9]; 0.2 nM 125I-rhCTGF, BS3, overexposed autoradiograph",no signal
same,CTGF binding on PEA 13 cells,"[9]; PEA 13, homozygous LRP deficient",no binding was detected
same,"CTGF specifically internalized, control cells","[3]; 0.2 nM 125I-rhCTGF, no TGF-β",approximately 260 fmoles CTGF/mg cell protein
same,"CTGF degraded, control cells",[3]; no TGF-β,About 1000 fmoles/mg cell protein
